Where no end group is shown, it is not given here. The star is where a group is joined. StBu = CC(C)(C)S*
Columns and labels:
[1] = biological target: TNF-α (Homo sapiens, UniProt P01375); assay: SPR verification of candidate TNF-α binding synbodies (Biacore T-100); conditions: 1.25 μM to 9.8 nM
Method: Candidate TNF-α binding synbodies were screened by surface plasmon resonance (SPR) on a Biacore T-100 SPR instrument to verify binding for TNF-α. A CM5 chip was activated using standard amine coupling chemistry and TNF-α was immobilized. Each synbody was prepared in HBS-N buffer with excess carboxymethyl dextran added to the running buffer to minimize non-specific binding to the chip surface. A concentration series of each synbody was prepared where the concentrations ranged from 1.25 μM to 9.8 nM.

[2] = biological target: Tumor Necrosis Factor-alpha (TNF-α) (Homo sapiens, UniProt P01375); assay: Chromatographic affinity screening on protein-coupled pipette tips with MALDI readout; format: binding; conditions: 500 nM each synbody in E. Coli Lysate
Method: The target proteins, Transferrin (TRF) and Tumor Necrosis Factor-alpha (TNF-α), were each covalently attached to pipette tips (one protein per pipette tip) containing carboxymethyl dextran matrix (Intrinsic Bioprobes, Tempe, Ariz.) using standard amine coupling chemistry. The unmodified tips were first washed with 0.5 M HCl followed by acetone. Each tip was activated using a 50 mg/mL solution of […] (CDI) in N-methyl-pyrolidone (NMP). Each tip was washed with NMP to remove excess CDI. Each protein was prepared as a 50 μg/mL solution in 100 mM sodium acetate pH 5.0 and cycled through a CDI activated tip for 30 minutes. Un-reacted CDI in the tip was then quenched with the addition of 1.5 M ethanolamine pH 8.5 and then washed extensively with HBS-N buffer. The protein-coupled tips were then stored in HBS-N buffer at 4° C. Negative control tips were prepared in the same manner except that no protein was added to the sodium acetate solution during the protein coupling step.
A library of 14 candidate synbodies (Table 9) was prepared by making 12 μM stock solutions in 1× phosphate buffered saline (PBS) of each HPLC purified synbody and […] of each stock solution was added to 600 μL of E. Coli Lysate that had been treated with a protease inhibitor. Thus the final concentration of each synbody was 500 nM.
A negative control pipette tip (blank tip), a TRF tip, and a TNF-α tip, were washed with 0.1% sodium dodecyl sulfate (SDS) to remove any non-covalently bound protein and then washed with HBS buffer. The tips were then incubated for 15 minutes in 150 μL of the synbody library. Each tip was then washed 5 times in 150 μL of HBS-N. This step was then repeated and each tip was washed 5 times in 150 μL of 0.25 M NaCl. Each tip was then washed 5 times in 150 μL of Milli-Q water and this step was repeated. […]
Each elution sample was spotted onto a MALDI plate and analyzed in reflectron mode on a Bruker Daltonics UltraFlex III TOF/TOF MALDI Mass Spectrometer.

Tumor Necrosis Factor-alpha (TNF-α), sequence (P01375 77-233 limits assumed, species assumed): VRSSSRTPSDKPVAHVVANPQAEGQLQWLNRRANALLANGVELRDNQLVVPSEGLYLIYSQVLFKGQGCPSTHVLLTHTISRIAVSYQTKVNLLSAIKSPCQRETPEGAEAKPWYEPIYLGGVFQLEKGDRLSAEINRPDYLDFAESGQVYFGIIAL
TNF-α, sequence (P01375 77-233 limits assumed, species assumed): as above

| Substance | binding to TNF-α (sensorgrams) [1] | MALDI peak in TNF-α tip elution (retention by target) [2] |
| --- | --- | --- |
| TNF1-TNF4-KC-stBu: lysine-linked synbody (peptide 1 FMNYPIKVPILVVPIGRGSGKC(StBu); peptide 2 MKSIIPMSVAQHQGPIKGSG; not fully specified) | no binding | no peak was observed |
| TNF1-TNF10-KC-stBu: lysine-linked synbody (peptide 1 FRGWAHIFFGPHVIYRGGSGKC(StBu); peptide 2 MKSIIPMSVAQHQGPIKGSG; not fully specified) | relatively strong binding kinetics | showed a peak |
| TNF2-TNF3-KC-stBu: lysine-linked synbody (peptide 1 SMKMVQPGHLLISYGHQGSGKC(StBu); peptide 2 RTTEMPFVFALGSVHPGGSG; not fully specified) |  | showed a peak |
